The record followed here is patent US20210284747A1 (CAPELLA BIOSCIENCE, published 2021).

Experiment [1] has as its target T1, Human LIGHT stably expressed on EL4 cells (EL4-LIGHT) (human, UniProt O43557 1-240).
T1 construct: whole, on cells; also called membrane LIGHT
Briefly: flow cytometry, EL4-LIGHT cells. As to the method: The EC50 of the 7 mAbs were calculated from binding to EL4-LIGHT cells (FIG. 1). […] Non-linear regression analysis was performed to determine the functional binding affinity measurement or EC50 for each mAb. A range of functional affinities was observed.

Experiment [2] has as its target T2, Human LIGHT-32L, on II23 cells (human, UniProt O43557 1-240).
T2 construct: also called II23-LIGHT 32L
T2 chain: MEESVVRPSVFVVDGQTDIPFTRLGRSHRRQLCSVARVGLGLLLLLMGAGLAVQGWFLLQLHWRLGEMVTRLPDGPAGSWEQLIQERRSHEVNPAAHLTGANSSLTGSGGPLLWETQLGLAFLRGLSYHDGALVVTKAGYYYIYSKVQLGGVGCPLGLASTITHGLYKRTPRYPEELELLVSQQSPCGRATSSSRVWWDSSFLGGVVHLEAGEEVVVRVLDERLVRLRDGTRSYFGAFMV
The experiment can be described thus: flow cytometry on II23-LIGHT 32L cells, 4 ug mAb in 100 uL, goat anti-human Fc gamma-PE; signal as % of the commercial anti-LIGHT-PE. The procedure:
The cells were suspended at 1×10⁷ cells/ml and 100 uL aliquots were placed into wells of a 96-well plate, the cells spun down and washed in FACS buffer at 1800 rpm for 2 min. The cells were blocked with 1:100 dilution of anti-CD16/CD32 (eBioscience, San Diego, USA) in FACS buffer for 20 min at room temperature and then washed 1× in FACS buffer at 1800 rpm for 2 min. The cells were then resuspended in 100 uL FACS buffer+4 ug anti-membrane LIGHT mAbs or anti-LIGHT-PE (eBioscience, lot: E01621-1632) for 30 min in the dark at room temperature, followed by washing 1× in FACS buffer at 1800 rpm for 2 min and then resuspended in 100 uL FACS buffer plus 1:100 goat anti-human Fcγ-PE secondary antibody or no secondary antibody at 4° C. in the dark for 30 min. The cells were again washed 1× in FACS buffer at 1800 rpm for 2 min and fixed in 200 uL 2% paraformaldehyde overnight at 4° C. and read on a flow cytometer.

Experiment [3] concerns the target LIGHT without residues 81-84, stably expressed on EL4 cells (EL4-NC-LIGHT). Briefly: cell-based or functional assay.
In experiment [4] the target is Full length LIGHT G188A on HEK293FF cells (Homo sapiens (Human), UniProt O43557 1-240). The experiment can be described thus: flow cytometry, HEK293FF, mAb at EC50. The procedure:
(§1) The day of transfection the cells were seeded in a 24-well plate at 0.6×10⁶ cells/well. Lipofectamine 2000 (ThermoFisher scientific), 3 ul, was mixed with 50 μl OptiMEM medium (GIBCO) and then added to 50 μl Opti-MEM medium containing 3 ug plasmid DNA and incubated for 20 min at RT to form DNA-Lipofectamine 2000 complexes which were then added to the HEK293FF cells and incubated at 37° C., 5% CO₂ for 24 hours. For each construct, in duplicate, 0.60×10⁶ cells/well were used in a 96 well round bottom plate. Cells were centrifuged for 3 minutes at 300×g at 4° C., the supernatant discarded and the cells washed with 150 μl FACS buffer (0.5% FBS in phosphate buffered saline). This process was repeated 3 times. […] The wells were washed 3 times as above and 50 μl/well of goat anti-human IgG FITC (1:1500 dilution in FACS buffer, SIGMA F9512-2ML) or goat anti-mouse APC (1/500 dilution in FACS buffer, BDBioscience 550826), as appropriate, was added to the wells and incubated for 30 min at 4° C. protected from the light, with shaking. The cells were then washed as above, resuspended in 100 μl of FACS buffer and binding of the antibodies to the constructs was measured using flow cytometry and a total of 10,000 cells were acquired for each sample. Controls of buffer and secondary antibody only as well as HEK293FF non transfected cells were also used.

The target in experiment [5] is Full length LIGHT S194A on HEK293FF cells (Homo sapiens (Human), UniProt O43557 1-240). The experiment can be described thus: flow cytometry, HEK293FF, mAb at EC50. As to the method: as §1
Experiment [6] deals with Full length LIGHT R195A on HEK293FF cells (Homo sapiens (Human), UniProt O43557 1-240). The experiment can be described thus: flow cytometry, HEK293FF, mAb at EC50. The procedure:
as §1

Experiment [7] addresses Full length LIGHT S192A on HEK293FF cells (Homo sapiens (Human), UniProt O43557 1-240). The experiment can be described thus: flow cytometry, HEK293FF, mAb at EC50. The procedure: as §1
Experiment [8] deals with Full length LIGHT V196A on HEK293FF cells (Homo sapiens (Human), UniProt O43557 1-240). The experiment can be described thus: flow cytometry, HEK293FF, mAb at EC50. The procedure: as §1
Experiment [9] addresses Full length LIGHT A190S on HEK293FF cells (Homo sapiens (Human), UniProt O43557 1-240). The experiment can be described thus: flow cytometry, HEK293FF, mAb at EC50. The procedure: as §1
The target of experiment [10] is Full length LIGHT W198A on HEK293FF cells (Homo sapiens (Human), UniProt O43557 1-240). The experiment can be described thus: flow cytometry, HEK293FF, mAb at EC50. The procedure: as §1
Experiment [11] addresses Full length LIGHT R189A on HEK293FF cells (Homo sapiens (Human), UniProt O43557 1-240). The experiment can be described thus: flow cytometry, HEK293FF, mAb at EC50. The procedure: as §1
The target of experiment [12] is Full length LIGHT W197A on HEK293FF cells (Homo sapiens (Human), UniProt O43557 1-240). Briefly: flow cytometry, HEK293FF, mAb at EC50. As to the method:
as §1

Experiment [13] has as its target Full length LIGHT S193A on HEK293FF cells (Homo sapiens (Human), UniProt O43557 1-240). Briefly: flow cytometry, HEK293FF, mAb at EC50. As to the method:
as §1

Experiment [14] concerns the target Full length LIGHT T191A on HEK293FF cells (Homo sapiens (Human), UniProt O43557 1-240). The experiment can be described thus: flow cytometry, HEK293FF, mAb at EC50. As to the method: as §1
The target of experiment [15] is T1, Human LIGHT stably expressed on EL4 …. Briefly: flow cytometry competition on EL4-LIGHT cells, co-incubation 40 min 4 C; blocked ligand DcR3-Fc-AF647 0.8 ug/ml; same IC50 as 0.031ug/ml, second unit printed. The procedure: (§2) EL4-LIGHT cells were co-incubated with Alexa Fluor 647 conjugated DcR3-Fc (DcR3-Fc-AF647; 0.8 μg/ml) and graded concentrations (31 μg/ml to 128 μg/ml) of anti-membrane LIGHT antibodies (3B04, 03D12 and 02B111) for 40 min at 4° C. A control, of a mAb that binds both soluble and membrane LIGHT was included (F19 from EP2292663). The samples were washed three times and flow cytometry analysis was performed. Specific mean fluorescence intensity (MFI) obtained from the binding of DcR3-Fc-AF647 to LIGHT on EL4 cells were used to determine the levels of competition binding.

Experiment [16] has the same target. The experiment can be described thus: flow cytometry, against F19 and F23.
Experiment [17] has the same target. The experiment can be described thus: flow cytometry competition on EL4-LIGHT cells, co-incubation 40 min 4 C; blocked ligand DcR3-Fc-AF647 0.8 ug/ml; displacement is partial. As to the method:
as §2

Experiment [18] concerns the target T3, Human LIGHT-214E, full length, expressed on cells (human, UniProt O43557 1-240).
T3 construct: also called membrane LIGHT
The experiment can be described thus: flow cytometry, HEK293FF human LIGHT cells.

T1 sequence (O43557 whole entry): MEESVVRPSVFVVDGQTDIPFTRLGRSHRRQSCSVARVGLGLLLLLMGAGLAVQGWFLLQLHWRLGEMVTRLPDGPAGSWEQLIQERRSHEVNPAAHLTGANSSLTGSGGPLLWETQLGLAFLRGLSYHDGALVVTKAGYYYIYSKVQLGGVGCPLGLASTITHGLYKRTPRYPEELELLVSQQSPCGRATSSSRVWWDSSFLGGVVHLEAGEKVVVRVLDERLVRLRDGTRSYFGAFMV
Chain of Full length LIGHT R195A on HEK293FF cells (O43557 whole entry R195A): as the sequence (O43557 whole entry) above, with R195A counted along it
Chain of Full length LIGHT S192A on HEK293FF cells (O43557 whole entry S192A): as the sequence (O43557 whole entry) above, with S192A counted along it
Chain of Full length LIGHT S194A on HEK293FF cells (O43557 whole entry S194A): as the sequence (O43557 whole entry) above, with S194A counted along it
Chain of Full length LIGHT V196A on HEK293FF cells (O43557 whole entry V196A): as the sequence (O43557 whole entry) above, with V196A counted along it
Chain of Full length LIGHT S193A on HEK293FF cells (O43557 whole entry S193A): as the sequence (O43557 whole entry) above, with S193A counted along it
Chain of Full length LIGHT R189A on HEK293FF cells (O43557 whole entry R189A): as the sequence (O43557 whole entry) above, with R189A counted along it
Chain of Full length LIGHT W197A on HEK293FF cells (O43557 whole entry W197A): as the sequence (O43557 whole entry) above, with W197A counted along it
Chain of Full length LIGHT W198A on HEK293FF cells (O43557 whole entry W198A): as the sequence (O43557 whole entry) above, with W198A counted along it
Chain of Full length LIGHT T191A on HEK293FF cells (O43557 whole entry T191A): as the sequence (O43557 whole entry) above, with T191A counted along it
Chain of Full length LIGHT G188A on HEK293FF cells (O43557 whole entry G188A): as the sequence (O43557 whole entry) above, with G188A counted along it
Chain of Full length LIGHT A190S on HEK293FF cells (O43557 whole entry A190S): as the sequence (O43557 whole entry) above, with A190S counted along it

B1: 2B11 chimeric IgG4 mAb (antibody, V domains shown)
VH: EVQLVESGAELVRPGVSVKISCKGSGYTFTDYAIHWVKQSHAKSLEWIGVISTYYGDASYNQKFKGKATMTVDKSSSTAYMELARLTSEDSAIYYCARSRGEYGNYDAMDYWGQGTSVTVSS
VL: DIVLTQSPASLAVSLGQRATISCRASESVDSYGNSFMHWYQQKPGQPPKLLIYRASNLESGIPARFSGSGSRTDFTLTINPVEADDVATYYCQQSNEDPYTFGGGTKLEIK
notes: Chimeric human IgG4 (S-to-P, L-to-E) with human CL, as m1; Often misprinted 2B111; also called Parental 2B11; 2B111
Regarding B1, a half-maximal response in experiment [1] (EC50) required 0.083 nM. The binding result in [2] is “binds”. For the same molecule, the “IC50, inhibition of IL-8 secretion, HT-29 + EL4-NC-LIGHT cells” value in experiment [3] stood at 0.6 nM. Also, the “% of WT binding” value was 3% in experiment [4]; 0% in [5]; 78% in experiment [6]; 96% in [7]; 73% in experiment [8]; 52% in experiment [9]. Also, the “% of WT binding” value in experiment [10] is 77%; in [11], 0%; in [12] it was 0%; in experiment [13], 0%; in experiment [14], 1%. For the same molecule, the IC50 in experiment [15] worked out at 0.214 nM; in [17], 0.031 µg/mL. Moreover, the “binding ratio, mAb to LIGHT trimer” value in experiment [16] stood at 1 mAb per LIGHT trimer.

B2: HVEM-Fc (R&D Systems) (Fc fusion, UniProt Q92956 37-202, looked up)
chain: PALPSCKEDEYPVGSECCPKCSPGYRVKEACGELTGTVCEPCPPGTYIAHLNGLSKCLQCQMCDPAMGLRASRNCSRTENAVCGCSPGHFCIVQDGDHCAACRAYATSSPGQRVQKGGTESQDTLCQNCPPGTFSPNGTLEECQHQTKCSWLVTKAGAGTSSSHWV
notes: unlabelled in the Fab screen; also called biotin-HVEM-Fc; not shown: Fc part of the bought fusion; not described
Regarding B2, the midpoint of the response in [18], the EC50, lay at 45 nM.

B3: LTβR-Fc (R&D Systems) (Fc fusion, UniProt P36941 28-227, looked up)
chain: SQPQAVPPYASENQTCRDQEKEYYEPQHRICCSRCPPGTYVSAKCSRIRDTVCATCAENSYNEHWNYLTICQLCRPCDPVMGLEEIAPCTSKRKTQCRCQPGMFCAAWALECTHCELLSDCPPGTEAELKDEVGKGNNHCVPCKAGHFQNTSSPSARCQPHTRCENQGLVEAAPGTAQSDTTCKNPLEPLPPEMSGTMLM
notes: also called LTBR-Fc; biotin-LTβR-Fc; not shown: Fc part of the bought fusion; not described
As to B3, the EC50 in experiment [18] worked out at 15 nM.
